Experimental data: patent publication US20240043528A1, “NANOBODY-OGA FUSIONS AND USES THEREOF” (President and Fellows of Harvard College, priority 2020, published 2024)
Entries after “also recorded” stand apart in the source; their conditions may differ. Values belong to the molecule of their own block, whether it stands above or below them.

How the values were obtained:
GFP-c-Jun = experiment: Cycloheximide (CHX) chase of GFP-c-Jun stability; assay type: cell-based, human; settings: 50 μM CHX for up to 12 h, HEK 293T cells
Procedure: HEK 293T cells were transiently transfected with indicated plasmids and treated with DMSO, or Ac45SGlcNAc, or Thiamet-G at the same time if needed. 36-48 h after the transfection, cells were incubated with 50 μM CHX for up to 12 h. At the indicated time points, cells were harvested and lysed with M-PER lysis buffer. Protein expression and global O-GlcNAc level were determined by immunoblot assays. GAPDH protein level was used as the internal loading control.

[1] = target: T1, OGT with C-terminal His tag (human, UniProt O15294 1-1046, limits assumed); experiment: co-immunoprecipitation with beads against the His tag of OGT from HEK 293T lysates, immunoblot
T1 construct: also called OGT-His; pCMV3-OGT-His; not shown: C-terminal His tag
T1 sequence (looked up): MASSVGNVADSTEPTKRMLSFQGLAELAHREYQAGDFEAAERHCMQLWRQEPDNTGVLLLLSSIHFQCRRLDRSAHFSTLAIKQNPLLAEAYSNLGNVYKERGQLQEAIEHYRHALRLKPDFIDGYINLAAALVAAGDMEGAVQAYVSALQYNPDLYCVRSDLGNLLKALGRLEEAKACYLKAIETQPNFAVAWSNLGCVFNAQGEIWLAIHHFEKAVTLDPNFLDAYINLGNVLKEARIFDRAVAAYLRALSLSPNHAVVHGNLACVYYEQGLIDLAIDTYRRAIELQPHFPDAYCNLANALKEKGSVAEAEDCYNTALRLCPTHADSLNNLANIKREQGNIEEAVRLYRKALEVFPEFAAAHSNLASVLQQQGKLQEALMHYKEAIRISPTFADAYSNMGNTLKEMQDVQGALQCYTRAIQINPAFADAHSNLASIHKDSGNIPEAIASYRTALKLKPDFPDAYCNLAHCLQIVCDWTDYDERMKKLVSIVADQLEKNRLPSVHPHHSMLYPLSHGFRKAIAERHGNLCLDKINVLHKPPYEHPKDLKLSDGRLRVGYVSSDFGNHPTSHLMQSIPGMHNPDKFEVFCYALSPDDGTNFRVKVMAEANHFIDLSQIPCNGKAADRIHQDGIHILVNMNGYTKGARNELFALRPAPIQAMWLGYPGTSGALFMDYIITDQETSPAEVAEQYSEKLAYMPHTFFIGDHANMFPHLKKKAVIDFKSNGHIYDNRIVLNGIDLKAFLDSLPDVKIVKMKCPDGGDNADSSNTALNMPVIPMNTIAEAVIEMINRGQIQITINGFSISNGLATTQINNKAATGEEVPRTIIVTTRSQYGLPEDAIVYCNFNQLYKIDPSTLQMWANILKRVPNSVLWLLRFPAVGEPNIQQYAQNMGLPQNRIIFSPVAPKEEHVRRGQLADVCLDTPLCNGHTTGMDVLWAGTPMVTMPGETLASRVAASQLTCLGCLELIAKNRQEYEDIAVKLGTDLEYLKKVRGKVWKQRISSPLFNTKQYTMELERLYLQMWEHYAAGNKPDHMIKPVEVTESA
Procedure: Overexpressed OGT and its interacting proteins were co-immunoprecipitated by beads against His tag. Whole cell lysates and co-immunoprecipitated proteins were analyzed by immunoblotting assays using the indicated antibodies. Anti-myc and anti-HA blots detect expression of full-length OGA (fl-OGA), N-terminal fragment, and C-terminal fragment, respectively. The data are representative of two biological replicates.
For immunoprecipitation of proteins with His tag, cells were lysed in a buffer containing 50 mM Tris HCl pH 8.0, 150 mM NaCl, 1% Triton X-100, 5% glycerol, 1× protease inhibitor cocktail and 10 μM Thiamet-G on ice for 20 min. Cell lysates with equal amounts of protein were diluted with wash buffer (50 mM Tris HCl pH 8.0, 150 mM NaCl, 0.01% Tween-20) and incubated with pre-washed His-Tag Dynabeads (Invitrogen, 10103D) at room temperature for 20 min with mixing, following the manufacturer's instructions. After washed 4 times with wash buffer, the enriched proteins were eluted with elution buffer (300 mM Imidazole, 50 mM Tris HCl pH 8.0, 150 mM NaCl, 0.01% Tween-20) on a shaker for 10 min at room temperature.

endogenous CREB = experiment: Mass shift assay of O-GlcNAcylation on endogenous CREB (off-target marker); assay type: cell-based, human; settings: untargeted off-target marker, HEK 293T cells
Procedure: (§1) For immunoblotting analysis, proteins were transferred to a nitrocellulose membrane using iBlot (Thermo Scientific). Membranes were blocked with Tris buffered saline containing 0.1% Tween-20 and 5% BSA and incubated with the primary antibodies (1:1000 dilution) and the secondary antibodies (1:10,000 dilution) sequentially. Immunoblot images were captured by Azure Imager C600. Analysis of immunoblots was conducted with Fiji ImageJ. All IR fluorescence western blot images are converted into grayscale images by Fiji ImageJ. The unsaturated exposure of immunoblot images was used for quantification with the appropriate loading controls as standards. Statistical analysis of the data was performed with Prism 8, using data from at least three independent experiments.
Purification of GalT1 (Y289L) enzyme and labeling of O-GlcNAcylated proteins with GalNAz were performed according to the procedure of Hsieh-Wilson and co-workers (Thompson, J. W., Griffin, M. E. & Hsieh-Wilson, L. C. Methods for the Detection, Study, and Dynamic Profiling of O-GlcNAc Glycosylation. Methods Enzymol. 2018, 598, 101-135). Briefly, cell samples in 6-well plates or 15-cm dishes were harvested and washed by PBS once. The lysis buffer (PBS with 2% SDS) was added into cell pellets and heated for 5 min at 95° C., followed by the sonication to sheer DNA. Protein concentrations were determined by BCA assay. […]

O-GlcNAcylated proteome = experiment: Quantitative TMT mass spectrometry of enriched O-GlcNAcylated proteome; assay type: cell-based, human; settings: co-expression of GFP-Nup62, versus inactive nGFP-splitOGA(D174N), n=2
Procedure: Purification of GalT1 (Y289L) enzyme and labeling of O-GlcNAcylated proteins with GalNAz were performed according to the procedure of Hsieh-Wilson and co-workers (Thompson, J. W., Griffin, M. E. & Hsieh-Wilson, L. C. Methods for the Detection, Study, and Dynamic Profiling of O-GlcNAc Glycosylation. Methods Enzymol. 2018, 598, 101-135). Briefly, cell samples in 6-well plates or 15-cm dishes were harvested and washed by PBS once. The lysis buffer (PBS with 2% SDS) was added into cell pellets and heated for 5 min at 95° C., followed by the sonication to sheer DNA. Protein concentrations were determined by BCA assay. Cell lysates were reduced and alkylated with 25 mM DTT at 95° C. for 5 min and 50 mM iodoacetamide at room temperature for 1 h respectively. Proteins were precipitated by the methanol/chloroform solution (aqueous phase:CH3OH:CHCl3=4:4:1) and resuspended in 1% SDS, 20 mM HEPES (pH 7.9) buffer with a concentration of 3.75 mg/mL. For 150 μg proteins, H2O (49 μL), 2.5×GalT labeling buffer (80 μL, final concentrations: 50 mM NaCl, 20 mM HEPES, 2% NP-40, pH 7.9), 100 mM MnCl2 (11 μL), 500 μM UDP-GalNAz (10 μL), 2 mg/mL GalT1 (Y289L) (10 μL) were added into cell lysates orderly. […]
For quantitative proteomics, after reaction with Biotin-Alkyne probe, proteins were precipitated and resuspended in 400 μL PBS containing 2% SDS. […]

global O-GlcNAcylation = experiment: Global O-GlcNAcylation level in whole cell lysate, anti-O-GlcNAc (RL2) immunoblot; assay type: cell-based, human; settings: HEK 293T whole cell lysate; OSMI-4b 25 μM for 30 h
Procedure: After 36-48 h of transfection, cells were harvested and washed with PBS once. Cells were lysed with M-PER lysis buffer containing 1× protease inhibitor cocktail and 10 μM Thiamet-G unless otherwise noted. Protein concentrations were determined by the BCA assay kit (G-Biosciences, 786) on a multi-mode microplate reader FilterMax F3 (Molecular Devices LLC, Sunnyvale, CA).
as §1

Molecule: CCN=C1N[C@@H]2[C@@H](O)[C@H](O)[C@@H](CO)O[C@@H]2S1 [Thiamet-G]
stability / degradation of GFP-c-Jun (GFP-c-Jun): attenuated; also recorded: enhanced

binding result [1]: no binding
B1: split OGA (N2+C3) (enzyme)
chain 1: MEQKLISEEDLAIAMVQKESQATLEERESELSSNPAASAGASLEPPAAPAPGEDNPAGAGGAAVAGAAGGARRFLCGVVEGFYGRPWVMEQRKELFRRLQKWELNTYLYAPKDDYKHRMFWREMYSVEEAEQLMTLISAAREYEIEFIYAISPGLDITFSNPKEVSTLKRKLDQVSQFGCRSFALLFDDIDHNMCAADKEVFSSFAHAQVSITNEIYQYLGEPETFLFCPTEYCGTFCYPNVSQSPYLRTVGEKLLPGIEVLWTGPKVVSKEIPVESIEEVSKIIKRAPVIWDNIHANDYDQKRLFLGPYKGRSTELIPRLKGVLTNPNCEFEANYVAIHTLATWYKSNMNGVRKDVVMTDSEDSTVSIQIKLENEGSDEDIETDVLYSPQMALKLALTEWLQEFGVPHQYSSR
chain 2: MAYPYDVPDYAAIAEKPLYTAEPVTLEDLQLLADLFYLPYEHGPKGAQMLREFQWLRANSSVVSVNCKGKDSEKIEEWRSRAAKFEEMCGLVMGMFTRLSNCANRTILYDMYSYVWDIKSIMSMVKSFVQWLGCRSHSSAQFLIGDQEPWAFRGGLAGEFQRLLPIDGANDLFFQPP
notes: Two co-expressed fragments

B2: fl-OGA: Full length OGA with a myc tag (SEQ ID NO: 1) (protein)
chain: MASMQKLISEEDLLMAMEARIRSTVQKESQATLEERESELSSNPAASAGASLEPPAAPAPGEDNPAGAGGAAVAGAAGGARRFLCGVVEGFYGRPWVMEQRKELFRRLQKWELNTYLYAPKDDYKHRMFWREMYSVEEAEQLMTLISAAREYEIEFIYAISPGLDITFSNPKEVSTLKRKLDQVSQFGCRSFALLFDDIDHNMCAADKEVFSSFAHAQVSITNEIYQYLGEPETFLFCPTEYCGTFCYPNVSQSPYLRTVGEKLLPGIEVLWTGPKVVSKEIPVESIEEVSKIIKRAPVIWDNIHANDYDQKRLFLGPYKGRSTELIPRLKGVLTNPNCEFEANYVAIHTLATWYKSNMNGVRKDVVMTDSEDSTVSIQIKLENEGSDEDIETDVLYSPQMALKLALTEWLQEFGVPHQYSSRQVAHSGAKASVVDGTPLVAAPSLNATTVVTTVYQEPIMSQGAALSGEPTTLTKEEEKKQPDEEPMDMVVEKQEETDHKNDNQILSEIVEAKMAEELKPMDTDKESIAESKSPEMSMQEDCISDIAPMQTDEQTNKEQFVPGPNEKPLYTAEPVTLEDLQLLADLFYLPYEHGPKGAQMLREFQWLRANSSVVSVNCKGKDSEKIEEWRSRAAKFEEMCGLVMGMFTRLSNCANRTILYDMYSYVWDIKSIMSMVKSFVQWLGCRSHSSAQFLIGDQEPWAFRGGLAGEFQRLLPIDGANDLFFQPPPLTPTSKVYTIRPYFPKDEASVYKICREMYDDGVGLPFQSQPDLIGDKLVGGLLSLSLDYCFVLEDEDGICGYALGTVDVTPFIKKCKISWIPFMQEKYTKPNGDKELSEAEKIMLSFHEEQEVLPETFLANFPSLIKMDIHKKVTDPSVAKSMMACLLSSLKANGSRGAFCEVRPDDKRILEFYSKLGCFEIAKMEGFPKDVVILGRSL
modifications: myc tag
O-GlcNAcylation level on endogenous CREB (endogenous CREB): reduced O-GlcNAc on CREB and the whole proteome
change of enriched O-GlcNAcylated protein abundance (global proteome) (O-GlcNAcylated proteome): globally decreased O-GlcNAcylated proteins
global O-GlcNAcylation level (global O-GlcNAcylation): global reduction of O-GlcNAc; also recorded: reduced O-GlcNAc on CREB and the whole proteome
